Reference: patent US7390635 (CANCER RESEARCH INSTITUTE OF CONTRA COSTA, dated 2008)
Values belong to the binder of their own block, whether it stands above or below them.

Legend:
[1] = molecular target: T1, BA46 antigen of the human milk fat globule (HMFG) (human, UniProt Q08431 24-387, limits assumed); test: competition RIA on plate-bound delipidated HMFG, each antibody tested against itself; reciprocal of the concentration giving 50% maximal binding
T1 construct: also called 46 kDa HMFG antigen; human milk fat globule preparation
T1 sequence (looked up): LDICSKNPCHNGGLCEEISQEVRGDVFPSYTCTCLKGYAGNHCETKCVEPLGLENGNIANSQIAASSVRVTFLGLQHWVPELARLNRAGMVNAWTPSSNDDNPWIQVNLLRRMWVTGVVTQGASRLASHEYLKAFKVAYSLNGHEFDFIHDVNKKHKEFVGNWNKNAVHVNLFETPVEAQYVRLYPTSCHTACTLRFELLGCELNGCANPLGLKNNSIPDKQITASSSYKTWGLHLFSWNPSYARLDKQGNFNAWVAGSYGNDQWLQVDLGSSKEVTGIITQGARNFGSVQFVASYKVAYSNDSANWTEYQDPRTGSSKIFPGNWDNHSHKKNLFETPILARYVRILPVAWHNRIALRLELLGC
Description: (§1) Binding studies were conducted as outlined earlier. Briefly, microliter plates were prepared using successive layers of methylated BSA (bovine serum albumin), glutaraldehyde, and a preparation of delipidated HMFG (Ceriani R. L. et al. (1977) PNAS (USA) 74:582-586). Each well was coated with 100 ng of HMFG. Competition experiments were conducted by adding to each well a standard amount of ^125I-MuMc3 and an appropriate dilution of unlabeled MuMc3 or HuMc3 in RIA buffer (10% bovine calf serum, 0.3 TRITON X-100™), 0.05% sodium azide pH 7.4, in PBS). For the determination of affinity constants, each antibody was tested in competition against itself.

[2] = molecular target: T1, BA46 antigen of the human milk fat …; test: affinity as summarised in the description; same assay as Example 10
Description: as §1

[3] = molecular target: T1, BA46 antigen of the human milk fat …; test: competition RIA on plate-bound HMFG; reciprocal of the concentration of unlabeled antibody giving 50% binding
Description: The protocol for the assay was as follows.
Microtiter plates (Dynatech, Chantilly, Va.) were prepared with HMFG according to standard techniques (as described by Ceriani et al., in "Monoclonal Antibodies and Functional Cell Lines" (T. J. McKern et al. eds.), pp. 398-402, New York, Plenum Press, 1984). To each well was added 25 µl ^125I-Mc3 in RIA buffer (10% bovine calf serum, 0.3% TRITON™ X-100, 0.05% sodium azide pH 7.4, in phosphate buffered saline), and competed with 25 µl of either unlabeled murine antibody or murine-human chimeric antibody in RIA buffer at final concentrations in the nanomolar range.
Iodinations were performed with ^125I (17 Ci/mg, Nordion International Inc., Kanata, Ontario, Canada). 50 µg monoclonal antibody Mc3 was labeled (at a specific activity of ~10 mCi/mg) using the chloramine T method as described by Ceriani, R. L., and Blank, E. W. (1988) *Cancer Res.* 48: 4664-4672.

Ka [1]: 6e+08 M⁻¹
Ka [2]: 6.2e+08 M⁻¹
B1: humanized Mc3 antibody (HuMc3) (antibody, human IgG1, V domains shown)
VH: EVQLVQSGAEVKKPGASVKVSCKASGYSFTGYTMHWVKQSPGMNLEWIGLINPYNGGTVYNQKFQDKATLTVDKSTSTAYMELSSLRSEDTAVYFCARRWRYTMDYWGQGTLVTVSS
VL: DIVMTQSPDSLAVSLGERATITCKASQDVSIGVAWYQQKPGQSPKLLIYSASSRYTGVPDRFSGSGSGTDFTLTISSLQAEDVAVYYCQQHYTSPFTFGSGTKVEIK
notes: Humanized variable regions cloned into pAH4604 (human gamma 1 constant region) and pAG4622 (human kappa constant region), so a human IgG1 kappa; also called HuMc3v2

Ka [3]: 5e+08 M⁻¹
B2: murine-human chimeric Mc3 antibody (ChMc3) (antibody, V domains shown)
VH: EVQLQQSGPELVKPGASMKISCEASGYSFTGYTMHWVKQSHGMNLEWIGLINPYNGGTVYNQKFQDKATLTVDKSSGTAYMELLSLTSEDSAVYFCARRWRYTMDYWGQGTSVTVSS
VL: DIVMTQSHKFMSTSEGDWVSITCKASQDVSIGVAWYQQKPGQSPKLLIYSASSRYTGVPDRFSGSGSGTDFTFTISSVQAEDLAVYYCQQHYTSPFTFGSGTNLEIK
notes: also called Chimeric antibody

Ka [3]: 3e+08 M⁻¹
B3: murine monoclonal antibody Mc3 (antibody, V domains shown)
VH: B2 VH
VL: B2 VL
notes: Whole murine monoclonal antibody from the Mc3 hybridoma, kappa light chain; As the tracer it was labelled with 125I by the chloramine T method; also called MuMc3; Mc3 murine antibody
